Laboratory results reported in patent US20230338553A1 (published 2023).

Molecular target: Prostate Stem Cell Antigen (PSCA) (human, UniProt O43653 12-83)
Experiment: flow cytometry (293T-PSCA cells)

Prostate Stem Cell Antigen (PSCA), sequence (O43653 12-83): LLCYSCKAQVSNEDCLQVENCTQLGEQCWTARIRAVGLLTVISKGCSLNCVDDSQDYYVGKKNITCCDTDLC

Row | Kd | Binder
1 | 0.744 µM | scFv(h-AM1)-BAP (scFv, mono-biotinylated at the C-terminal BAP (Bio-Tag)) scFv: DAAQPARRARRTKLGTELGSEVQLLESGGGLVQPGGSLRLSCVASGFTFSSYTMSWVRQAPGKGLEWVSYIHNGGGHTYYADSVKGRFTISRDNSKNTLYLQMNSLRAEDTAVYYCTRRMYYGNSHWYFDVWGAGTRVTITSAKTTPPSVYGGGGSGGGGSGGGGSTNSDIQMTQSPSSLSASVGDRVTITCRTSQSISNYLNWYQQKPGKAPKLLIYYTLKLNSGVPSRFSGSGSGTDFTLTISSLQPEDFATYYCQQSKTLPWTFGGGTKLEIKRADAAPTVSGPEQKLISEEDLNSAVDMSGLNDIFEAQKIEWHEGAPSSHHHHHH
2 | 16.6 µM | scFv(AM1)-P-BAP (scFv, mono-biotinylated at the C-terminal P-BAP (PSTCD biotin acceptor domain) when produced in 293T-huBirA cells) scFv: DAAQPARRARRTKLGTELGSQVKLQESGGGLVQPGGSLKLSCVASGFTFSSYTMSWVRRTPEKRLEWVAYIHNGGGHTYYPDTIKGRFTISRDNAKNTLFLEMSSLKSEDTAMYYCTRRMYYGNSHWYFDVWGAGTSVTVSSAKTTPPSVYGGGGSGGGGSGGGGSTNSDIVMTQSPSSLSASLGDRVTINCRTSQDISNYLNWYQLTPDGTVKLLIYYTLKLNSGVPSRFSGSGSGTDYSLTINNLEKEDFATYFCQQSKTLPWTFGGGTKLEIKRADAAPTVSGPKLSSKLKVTVNGTAYDVDVDVDKSHENPMGTILFGGGTGGAPAPAAGGAGAGKAGEGEIPAPLAGTVSKILVKEGDTVKAGQTVLVLEAMKMETEINAPTDGKVEKVLVKERDAVQGGQGLIKIGDLELIEGSSGPEQKLISEEDLNSAVDHHHHHH
